According to patent publication US20250298032A1 (INSTITUTE FOR RESEARCH IN BIOMEDICINE, published 2025):

What was measured:
[1] = target: T1, CXCL16 N-loop peptide (human, biotin-Ahx at the N-terminus; amidated at the C-terminus); test: ELISA, biotinylated CXCL16 N-loop peptide on neutravidin plate, anti-human IgG-HRP, OD450 nm
T1 construct: Synthetic peptide, captured on Neutravidin-coated ELISA plates
T1 peptide: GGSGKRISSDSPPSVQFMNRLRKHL
Description: (§1) To evaluate the antibodies' binding to chemokine peptides, 96-well plates (ThermoFisher, 442404) were coated with 50 μl per well of a 2 μg/ml Neutravidin (Life Technologies, 31000) solution in PBS, overnight at room temperature. Plates were washed 4 times with washing buffer (PBS+0.05% Tween-20 [Sigma-Aldrich]) and incubated with 50 μl per well of a 50 nM biotinylated peptide solution in PBS for 1 h at room temperature. After washing 4 times with washing buffer, plates were incubated with 200 μl per well of blocking buffer (PBS+2% BSA+0.05% Tween-20) for 2 h at room temperature. Plates were then washed 4 times with washing buffer, and serial dilutions of monoclonal antibodies or plasma were added in PBS +0.05% Tween-20 and incubated for 1 h at room temperature. To screen for the presence of anti-chemokine IgGs, plasma samples were assayed (unless otherwise stated) at 1:50 starting dilution followed by 3 fourfold serial dilutions (1:200, 1:800, 1:3200). Monoclonal antibodies were tested at 5 μg/ml starting concentration followed by 11 threefold serial dilutions. Plates were subsequently washed 4 times with washing buffer and incubated with anti-human IgG secondary antibody conjugated to horseradish peroxidase (HRP) (GE Healthcare, NA933) at a 1:5000 dilution in PBS+0.05% Tween-20. Finally, after washing 4 times with washing buffer, plates were developed by the addition of 50 μl per well of the HRP substrate TMB (ThermoFisher, 34021) for 9 min. The developing reaction was stopped with 50 μl per well of a 1 M H₂SO₄ solution, and absorbance was measured at 450 nm with an ELISA microplate reader (BioTek) with Gen5 software. A positive control (broadly reactive plasma from donor CLM70) and a negative control (uninfected participant) samples were included in each experiment. The Area Under the Curve (AUC) was obtained from two independent experiments and plotted with GraphPad Prism.

[2] = target: T2, CXCL13 N-loop peptide (human, biotin-Ahx at the N-terminus; amidated at the C-terminus); test: ELISA, biotinylated CXCL13 N-loop peptide on neutravidin plate, anti-human IgG-HRP, OD450 nm
T2 construct: Synthetic peptide, captured on Neutravidin-coated ELISA plates
T2 peptide: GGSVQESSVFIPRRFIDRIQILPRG
Description: as §1

[3] = target: T3, CCL20 N-loop peptide (human, biotin-Ahx at the N-terminus; amidated at the C-terminus); test: ELISA, biotinylated CCL20 N-loop peptide on neutravidin plate, anti-human IgG-HRP, OD450 nm
T3 construct: Synthetic peptide, captured on Neutravidin-coated ELISA plates
T3 peptide: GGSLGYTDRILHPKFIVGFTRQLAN
Description: as §1, with “Plates were subsequently washed 4 times with washing buffer and incubated with anti-human IgG secondary antibody conjugated to horseradish peroxidase (HRP) (GE Healthcare, NA933) at a 1:5000 dilution in PBS+0.05% Tween-20. Finally, after washing 4 times with washing buffer, plates were developed by the addition of 50 μl per well of the HRP substrate TMB (ThermoFisher, 34021) for 9 min.” left out, “A positive control (broadly reactive plasma from donor CLM70) and a negative control (uninfected participant) samples were included in each experiment. The Area Under the Curve (AUC) was obtained from two independent experiments and plotted with GraphPad Prism.” left out

B1: aCXCL16.002 (antibody, human IgG1, V domains shown)
VH: EVQLVESGGGLSQPGWSLRLSCAASGLTVTRNYMSWVRQAPGKGLEWVSTLWTDGQKFYADSVKGRFTVSRDSYTNTLNLEMSGLRAEDTAVYFCTRDKVVPVRITPDYHYYGMDVWGQGTTVTVSS
VL: DIQLTQSPSFLSASVGDRVTITCRASQGVRRYLAWYQQKPGKAPKFLIYGASSLHTGVPSRFSGGGSDTEFTLTISNLQTEDFATYYCQQLDTYPLTFGGGTKVEIK
notes: also called anti-CXCL16 N-loop antibody
binding result [1]: binds

B2: aCXCL13.003 (antibody, V domains shown)
VH: QVQLQEWGAGLLKPSETLSLTCAVYGGSFSGYYWSWIRQPPGKGLEWIGEINHSGSTNYNPSLKSRVTISVDTSKNQFSLKLSSVTAADTAVYYCARAGRSYGDYGAFDIWGQGTMVTVSS
VL: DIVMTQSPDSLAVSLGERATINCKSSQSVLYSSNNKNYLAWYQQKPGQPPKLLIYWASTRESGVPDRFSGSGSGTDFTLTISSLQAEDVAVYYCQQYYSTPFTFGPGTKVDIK
notes: also called anti-CXCL13 N-loop antibody
binding result [2]: binds

B3: aCXCL13.002 (antibody, V domains shown)
VH: EVQLVESGGGLVKPGGSLRLSCAASGFTFSSYSMNWVRQAPGKGLEWVSSISSSSSYIYYADSVKGRFTISRDNAKNSLYLQMNSLRAEDTAVYYCARDGIYDYAPVDYWGQGTLVTVSS
VL: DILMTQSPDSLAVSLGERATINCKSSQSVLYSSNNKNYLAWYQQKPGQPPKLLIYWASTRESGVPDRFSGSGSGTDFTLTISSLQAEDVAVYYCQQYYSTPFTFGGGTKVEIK
notes: as for B2
binding result [2]: binds

B4: aCXCL16.001 (antibody, human IgG1, V domains shown)
VH: EVQLVESGGGLVKPGESLTLSCVASGYPFANAWMSWVRQAPGKGLEWVGRIKTKSEGETTDYAPLVRGRFTISRDDSKTTVFLQMNSLKTEDTGMYYCTTVFFWGRGTLVTVSS
VL: SYELTQPPSVSVSPGQTARITCSGDALSQQYLFWHQQRPGQAPKVVISKDTERPSGIPERFSGSISGTTGTLTISGVQTEDEADYYCHSTDISDSYWVFGGGTKLTVL
notes: as for B1
EC50 (read off the curve) [1]: ~0.1 µg/mL

B5: aCCL20.001 (antibody, V domains shown)
VH: QVQLVQSGAEVKKPGASVKISCKASGYTFTNHYMHWVRQAPGVGLEWMGIVNPSGGNTSYARNFQGRIIMTRDMSTRTIYMELGSLRSEDTAVYYCARDGSHYDDDGGYYGDAFDIWGQGTMVTVSS
VL: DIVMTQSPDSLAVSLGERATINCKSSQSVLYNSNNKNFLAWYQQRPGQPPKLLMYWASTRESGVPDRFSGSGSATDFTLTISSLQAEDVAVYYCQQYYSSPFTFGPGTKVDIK
notes: also called anti-CCL20 N-loop antibody
EC50 (read off the curve) [3]: ~0.04 µg/mL
